Data published in the supplement of paper PMC9170038.

Columns and labels:
[1] = test system: MS2 coat protein; assay: apparent KD of MS2 coat protein, switch OFF state (with FMN for OFF switches, without FMN for ON switches); designed switch direction (-1 OFF switch, 1 ON switch): -1; higher = weaker reporter binding; settings: FMN input: 0 or 200 uM; Eterna round: R93 (includes R88 designs)
How it was run: (§1)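 The designed RNA switches were transcribed on-chip from Illumina sequencing clusters. In 100 mM Tris-HCl pH 7.5, 80 mM KCl and 4 mM MgCl2, without or with constant ligand, they were titrated with SNAP-549-labelled MS2 coat protein from 0.7 or 1.5 nM to 3 µM in twofold steps. Apparent KD is the per-design median of normalised cluster binding-curve fits.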

[2] = test system: MS2 coat protein; assay: apparent KD of MS2 coat protein, switch ON state; designed switch direction (-1 OFF switch, 1 ON switch): -1; higher = weaker reporter binding; settings: FMN input: 0 or 200 uM; Eterna round: R93 (includes R88 designs)
How it was run: as §1

Sequence	apparent KD of MS2 coat protein [1]	apparent KD of MS2 coat protein [2]
AACAGUACAGGAUAUACAUGAGGAUCACCCAUGUGGAAAUUAAGUGGCGUACCACAAAGUAGAAGGGUACUGGA [Moding Maslow revisited (73)]	100 nM	29.5 nM
AACAGUACAGGAUAUACAUGAGGAUCACCCAUGUAGAGAGAAUAAAACAAAAAUAAAUGUAGAAGGGUACUGGA [Moding Maslow revisited (73) 23]	26.1 nM	25.6 nM
AGAAUACAUGAGGAUCACCCAUGUGAGGAUAUCCAAAGAAAAAGAAAAGAAAAGAAAAGGAGAAGGCACAAAAG [EX 1 May 13]	67.3 nM	78.7 nM
UGCAGGUGAGGAUAUGCGGGCGAGCUAACAUAAGCAUCGAAGCAGAAGGCACAUGAGGAUCACCCAUGUAGUCC [Ex4_Neo]	27.2 nM	21 nM
AGAUAGUCAGGAUAUACGAACAAGAAAAAAGACGAGAACGGACAUGAGGAUCACCCAUGUAGAAGGGACUAGCA [Diamond 10]	30.2 nM	35.6 nM
AACUGACAUGAGGAUCACCCAUGUCAGGAUAUGACUUGAAAAAAAAAAAAAAAACAUGUCAGAAGGGACAUGGG [Design 55 :P Sub-opt HB]	17.9 nM	26.8 nM
AAGAAACAUGAGGAUCACCCAUGUCAGGAUAUCCAAAAGAAAAGAAAAGAAAGAAGAAGGAGAAGGGACAAAGG [Neferkamin Anu]	40.6 nM	31 nM
AACAUGUAAGGAUAUCCAAGAAAAGAAAAGAAAGAAAAGAAGGAGAAGGUACAUGAGGAUCACCCAUGUAAGAA [EteRNA is fun!]	18.9 nM	21.6 nM
AAAGAUGGAGGAUAUACAUGAGGAUCACCCAUGUGGAAAAUAAAUUGGGAAAAAGAAAGUAGAAGGCCAAAAAA [Ex 3 May 41]	94.7 nM	45.5 nM
AACAGUACAGGAUAUACAUGAGGAUCACCCAUGUGAGAAUUAAGUGGCGAACCACAAAGUAGAAGGGUACUGAA [Mat - Exclusion 3 - JL mod - D7]	181 nM	45.3 nM
CAAAACAGAGGAUAUACAUGAGGAUCACCCAUGUAAAAAUGUAGAAGGCUGAAACAAACAAGAAGGAAACAAAA [Meechl Ex3 R2 m3]	30.1 nM	23.7 nM
AAAAAGAGAGGAUAUACAUGAGGAUCACCCAUGUGAAAGACGAAAAAAAGUCAAAAAAGUAGAAGGCUCAAAAA [65%, Moding Exclusion3-cac2, 15]	25.4 nM	23.8 nM
GGUUGGCGAGGAUAUACAUGAGGAUCACCCAUGUGAGAGAAAAAAGUGAGGAGGAGCAGUAGAAGGCGCUGACG [salish99-ex3-19]	147 nM	59.3 nM
AAAAAUGGAGGAUAUACAUGAGGAUCACCCAUGUGUAACUAUACUAAGCACAAACCAAGUAGAAGGCCAAAAAA [Gilly Gone Silly 10 - Jieux - Exclusion 3]	95.3 nM	45.4 nM
AAGGGACAUGAGGAUCACCCAUGUAAGGAUAUGCUAUGGAAAAUAAAAAUAAAACAUAGCAGAAGGUACAAAAA [Denovo 15]	135 nM	124 nM
AAGGGACAUGAGGAUCACCCAUGUCAGGAUAUGCUAUGGAAAAUAAAAAUAAAACAUAGCAGAAGGGACACCAA [64%, Meechl, 3]	40.3 nM	25.9 nM
AAGAAGUAAGGAUAUACAAAAUAAAAGAAAAGAAAGAAAGAACAUGAGGAUCACCCAUGUAGAAGGUACAAGAA [Sankhkare Mentuhotep III]	19.6 nM	38.1 nM
AAAAAGAGAGGAUAUGCAGGAGGUAAGGUCGAAAAAAAAAAACAUGAGGAUCACCCAUGUAGAAGGUUUAAAAA [Ecls2-VII]	23.9 nM	23.6 nM
AAGAUGUUAGGAUAUGCUGCUCGUCACAAAAGUGAUGAGUAGCAGAAGGGACAUGAGGAUCACCCAUGUAAAGA [JL eternac mod 6]	34.8 nM	45.5 nM
CAGUACUGAGGAUAUACAUGAGGAUCACCCAUGUAAAAAAGCUACGAAAGUAGCAAAUGUAGAAGGCAGUACUG [Ex3: 804]	22.8 nM	15.5 nM
AGAUGACAAGGAUAUACUAGGGAUGAUAGUAGAGAAGAAGAACAUGAGGAUCACCCAUGUAGAAGGUGUAAGAA [JR_Exc002_Sub1702]	61.1 nM	70 nM
AGUUAGCGAGGAUAUACAUGAGGAUCACCCAUGUGAGAGAAAAAAGUGAGAAAUAAAAGUAGAAGGCGCUAACA [Mat - Exclusion 3 - Eli mod - D69]	361 nM	38.9 nM
AGUCUGAGAGGAUAUACAUAGGAAAAAAAAGUCAGAUCCCUACAUGAGGAUCACCCAUGUAGAAGGCUCUGACA [Ex2 Design 148: Sub-opt 12]	12.6 nM	13.9 nM

Sequence	apparent KD of MS2 coat protein [1]	apparent KD of MS2 coat protein [2]
ACAAAUGUAGGAUAUACAUGAGGAUCACCCAUGUGGCACAAACAGCAAACAAGACAAAGUAGAAGGACAACGAC [JR_Exc003-Sub901]	28.4 nM	24.9 nM
GAAAGUGGAGGAUAUACAUGAGGAUCACCCAUGUGUAAAAAUAAAAACACAAAAGAAAGUAGAAGGCCACAAAG [Mat - Exclusion 3 - Mayanna mod - D116]	49.2 nM	22.9 nM
AACAGUACAGGAUAUACAUGAGGAUCACCCAUGUAGAGAAAAUAAAACAAAAAUAAAAGUAGAAGGGUACUGGA [Ruby 47]	26.4 nM	26.6 nM
GUGUACAGAGGAUAUAUAUGAGCUAGGAAACUAGCAACUUCACAUGAGGAUCACCCAUGUAGAAGGCUGUACAC [Ex2: 720]	14.3 nM	14.1 nM
AAAACGGCAGGAUAUACGAUUUGGAACUAGACCGAGGAACCACAUGAGGAUCACCCAUGUAGAAGGGCCAAAAA [Ex2 Malc#16]	19.7 nM	17.2 nM
AGCUAGUCAGGAUAUACGAACAGGUGAAAAGACGUAAGGGAACAUGAGGAUCACCCAUGUAGAAGGGACUAGCA [Diamond 53]	99.3 nM	91.3 nM
AAGAAGUUAGGAUAUACAAGAAAGAAAGAAAAGAAAAGAAAACAUGAGGAUCACCCAUGUAGAAGGAACUAGAA [EteRNA is fun!]	19.6 nM	26.8 nM
AGUAGUACAGGAUAUACAUGAGGAUCACCCAUGUGAAAAUUAAGUGGCGUACCACAAAGUAGAAGGGUACUACA [Mat - Exclusion 3 - JL mod - D36]	148 nM	31 nM
GGUUGCGUAGGAUAUACAUGAGGAUCACCCAUGUGAGAGAAAAAAGUGAGAAAGAAAAGUAGAAGGACGUGACG [salish99-ex3-125]	57.9 nM	29.7 nM
AGAAUACAUGAGGAUCACCCAUGUGAGGAUAUGCAAAUAAAAAUAAAAUAAAAUAAAUGCAGAAGGCACGAAAG [EX 1 May 22]	58.2 nM	35.9 nM
ACUAAACGAGGAUAUACUGACAAACCUCAAACAUACAUCAAACAUGAGGAUCACCCAUGUAGAAGGCGUAAACU [JR_Exc002_Sub401]	19.6 nM	37.6 nM
AUAGUACAUGAGGAUCACCCAUGUCAGGAUAUUCGAAACGAAAAAAAAAAAAAGUGAAGGAGAAGGGACUAUAA [EX1 Malc#10]	21.1 nM	17.5 nM
CUCUAGUCAGGAUAUUCAAGAAAAGAAAAGAAAGAAAAGAAGAAGAAGGGACAUGAGGAUCACCCAUGUAAGAA [EteRNA is fun!]	46.5 nM	46.7 nM
AAGAACCAAGGAUAUACAUGAAAGAAAGAAAAGAAAAGAAAACAUGAGGAUCACCCAUGUAGAAGGUGGUAGAA [EteRNA is fun!]	105 nM	70.2 nM
AGAAAGUCAGGAUAUGCAGAAAAAAAAACGAAAAAAAAACUGCAGAAGGGACAUGAGGAUCACCCAUGUUAAAG [Mat - Exclusion 4 - Mayanna - D129]	34.9 nM	46.6 nM
AACAUGUCAGGAUAUGUGUAAAGAAUAAAAGAAAUAACAACACAGAAGGGACAUGAGGAUCACCCAUGUCAACA [May 32]	29.3 nM	26.1 nM
AAAAAGUGAGGAUAUACAUGAGGAUCACCCAUGUGUAUAAAAAAUUACACAAAAGAAAGUAGAAGGCACUAAAA [Ex 3 Summer]	32 nM	20.3 nM
AAGAAACAUGAGGAUCACCCAUGUGAGGAUAUGAAAAAGAAAAGAAAAGAAAGAAGAAUCAGAAGGCACAAAGG [Nebkaure Khety II]	1850 nM	22.1 nM
AAAAAGAUAGGAUAUACGAACAUGUCGAAAGACGUGAAGGGACAUGAGGAUCACCCAUGUAGAAGGGUUAAAAA [Mat - Exclusion 2 - JL mod - D88]	50 nM	149 nM
AAAUGACAUGAGGAUCACCCAUGUCAGGAUAUGACUUGAAAAUAAAAUAAAAAACAUGUCAGAAGGGACAUGGG [Design 50: Sub-opt F]	15.5 nM	20.3 nM
AAAAAACAUGAGGAUCACCCAUGUGAGGAUAUACAAAACCCAUAUAAAAAGGGAAAAAGUAGAAGGCACAAAAA [wbt round 1 mod 11]	33.9 nM	27.5 nM
AAAAGGCGAGGAUAUACAUGAGGAUCACCCAUGUAAGUAAGCCUGGCUGAAACUAAAUGUAGAAGGCGCAAAAA [Mat - Exclusion 3 - Neo mod - D73]	56.2 nM	18.2 nM
